Results from US9212226B2, “Amino acid sequences directed against CXCR4 and other GPCRs and compounds comprising the same” (Ablynx N.V., priority 2008, dated 2015).

Molecular target: CXCR4 (Homo sapiens, UniProt P61073)
Assay: [125I]-238D2 competition binding on membranes from HEK293T cells transiently expressing CXCR4
Procedure: HEK293T cells were maintained at 37° C. in a humidified 5% CO2, 95% air atmosphere in Dulbecco's modified Eagle's medium (DMEM) containing 2 mM L-glutamine, 50 IU/ml penicillin, 50 μg/ml streptomycin, and 10% (v/v) fetal calf serum. Jurkat cells were cultured in a humidified 5% CO2, 95% air atmosphere in a 1:1 mixture of Dulbecco's modified Eagle's medium (DMEM) and Ham's F12 medium containing 2 mM L-glutamine, 50 IU/ml penicillin, 50 μg/ml streptomycin, and 10% (v/v) fetal calf serum. […] [^125 I]-Labelling— Radiolabeling of Nanobodies with ^125I was performed using the Iodo-gen method (Pierce, Rockford, Ill.) according to the manufacturer's protocol. ^125I-labeled Nanobodies was separated from free iodine (>99%) using a Sephadex G-25 gel filtration column (Amersham Biosciences, Piscataway, N.J.). […] Competition Binding Assays— Membranes from HEK293T cells transiently expressing CXCR3 or CXCR4 were prepared 48 h after transfection as follows. Cells were washed and scraped from the cell culture dishes with ice-cold PBS containing 1 mm EDTA. The scraped cells were pelleted at 1500×g for 10 min at 4° C. The pellet was washed and then resuspended in ice-cold membrane buffer (15 mM Tris, pH 7.5, 1 mM EGTA, 0.3 mM EDTA, and 2 mM MgCl2). The cell suspension was homogenized by 10 strokes at 1200 rpm using a Teflon-glass homogenizer and rotor and further subjected to three freeze-thaw cycles using liquid nitrogen. Membranes were separated by centrifugation at 40,000 g for 25 min at 4° C. The membrane pellet was washed and resuspended in ice-cold Tris-sucrose buffer (20 mM Tris, pH 7.4, and 250 mM sucrose) and frozen in liquid nitrogen. The total protein was determined using a Bradford assay (Bio-Rad). […] Membranes were then harvested over polyethylenimine (0.5%)-treated Whatman GF/C filter plates and washed three times with ice cold binding buffer containing 500 mM NaCl. Plates were counted by liquid scintillation. Inositol Phosphate Accumulation Assay— 24 hours post transfection with pcDNA3.1-CXCR4 and pcDNA1-HA-mG {alpha} qi5 (see Verzijl et al, 2008 supra), 250.000 cells were seeded into 24-wells plates and labelled overnight using inositol-free minimal essential medium supplemented with 1 μCi myo-[2-^3H]-inositol. The next day, the cells were washed once to remove not incorporated myo-[2-^3H]-inositol. […] In agonist experiments, the cells were directly stimulated with test compounds and LiCl (10 mM) in assay buffer for 2 h at 37° C. The stimulation was stopped by aspirating the stimulation medium and adding ice-cold 10 mM formic acid. The accumulated inositol phosphates were isolated by anion exchange chromatography and counted by liquid scintillation. CRE Reporter Gene Assay— HEK239T cells were transfected with pCRE/β-galactosidase (Chen W, Shields T S, Stork P J S, Cone R D (1995) Anal Biochem 226:349-354) and plasmids (pcDEF3 or pcDNA3.1) encoding the indicated receptors. 40,000 transfected cells per well were seeded into 96 well plates and grown in DMEM supplemented with 10% fetal calf serum. The medium was replaced 32 h after transfection by serum-free DMEM supplemented with 0.5% bovine serum albumin and ligands as indicated. […] The β-galactosidase activity was determined by the measurement of absorption at 420 nm with a PowerwaveX340 plate reader (Bio-Tek Instruments Inc., Winooski, Vt.) after incubation with the assay buffer when the OD420 value for forskolin (3 μM) controls reached 0.4-0.6. Chemotaxis Assay— The chemotactic responsiveness of Jurkat 3D cells was assessed using ChemoTx™ plates (Receptor Technologies Ltd., Oxon, UK) in which a upper cell-containing compartment is separated from a lower chemoattractant-containing compartment by a polyvinylpyrollidone-free polycarbonate filter with 5-μm pores. Cells were harvested, washed and resuspended in RPMI containing 0.5% bovine serum albumin and then loaded to 150,000 cells per well in a volume of 25 μl into the upper compartment of the chemotaxis chamber.

[1] = membranes from HEK293T cells transiently expressing CXCR4, mean ± S.E.M.

CXCR4, sequence (P61073 whole entry): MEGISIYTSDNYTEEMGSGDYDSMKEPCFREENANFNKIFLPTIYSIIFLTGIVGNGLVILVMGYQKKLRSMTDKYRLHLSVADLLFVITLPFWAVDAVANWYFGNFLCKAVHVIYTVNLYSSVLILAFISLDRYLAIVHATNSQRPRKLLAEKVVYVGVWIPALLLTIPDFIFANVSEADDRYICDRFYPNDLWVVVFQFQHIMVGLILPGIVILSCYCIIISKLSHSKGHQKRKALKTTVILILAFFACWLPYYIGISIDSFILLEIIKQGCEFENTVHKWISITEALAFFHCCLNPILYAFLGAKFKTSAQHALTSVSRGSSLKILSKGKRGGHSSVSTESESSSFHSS

B1: 238D4: Nanobody (VHH) raised against human CXCR4, SEQ ID NO: 239 (protein)
VHH: EVQLMESGGGLVQAGGSLRLSCAASGRTFNNYAMGWFRRAPGKEREFVAAITRSGVRSGVSAIYGDSVKDRFTISRDNAKNTLYLQMNSLKPEDTAVYTCAASAIGSGALRRFEYDYSGQGTQVTVSS
modifications: Nanobody, Nanobody constructs or fragments thereof
[125I]-238D2 3 nM
  displacement of [125I]-238D2 from CXCR4: full displacement
[1]
  Displacem. (%) of [125I]-238D2 (maximal displacement): 101 ± 1%

B2: 238D2: Nanobody (VHH) raised against human CXCR4, SEQ ID NO: 238 (protein)
VHH: EVQLVESGGGLVQTGGSLRLSCAASGFTFSSYAMSWVRQAPGKGLEWVSGIKSSGDSTRYAGSVKGRFTISRDNAKNMLYLQMYSLKPEDTAVYYCAKSRVSRTGLYTYDNRGQGTQVTVSS
modifications: Nanobody, Nanobody constructs or fragments thereof
[1]
  Displacem. (%) of [125I]-238D2 (maximal displacement): 97 ± 6%
  pKi, [125I]-238D2: 8.41 ± 0.11
